From US20210347908A1 (ELPISCIENCE SUZHOU BIOPHARMA, published 2021)
Substitutions are numbered along the chain they refer to.

T1: 6×His tagged C57BL/6 mouse SIRPα ECD recombinant protein (mouse (C57BL/6), UniProt P97797 32-373)
T1 construct: extracellular domain; bought; also called mSIRPα (C57BL/6); mouse SIRPα (C57BL/6) ECD
T1 sequence: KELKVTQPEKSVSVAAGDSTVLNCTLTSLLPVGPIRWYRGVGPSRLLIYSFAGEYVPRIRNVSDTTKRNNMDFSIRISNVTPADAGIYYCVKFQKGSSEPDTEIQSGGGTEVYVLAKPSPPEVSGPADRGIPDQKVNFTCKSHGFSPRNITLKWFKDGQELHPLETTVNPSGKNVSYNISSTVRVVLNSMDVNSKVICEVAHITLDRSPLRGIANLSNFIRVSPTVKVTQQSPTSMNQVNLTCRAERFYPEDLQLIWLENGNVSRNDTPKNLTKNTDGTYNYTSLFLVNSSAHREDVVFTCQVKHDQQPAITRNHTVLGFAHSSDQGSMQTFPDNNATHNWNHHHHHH

T2: full length C57BL/6 mouse SIRPα stably expressed on CHOK1 cells (mouse (C57BL/6), UniProt P97797 32-513)
T2 construct: whole, on cells; also called CHOK1-C57BL/6 mouse SIRPα-2.22 cells
T2 sequence (looked up): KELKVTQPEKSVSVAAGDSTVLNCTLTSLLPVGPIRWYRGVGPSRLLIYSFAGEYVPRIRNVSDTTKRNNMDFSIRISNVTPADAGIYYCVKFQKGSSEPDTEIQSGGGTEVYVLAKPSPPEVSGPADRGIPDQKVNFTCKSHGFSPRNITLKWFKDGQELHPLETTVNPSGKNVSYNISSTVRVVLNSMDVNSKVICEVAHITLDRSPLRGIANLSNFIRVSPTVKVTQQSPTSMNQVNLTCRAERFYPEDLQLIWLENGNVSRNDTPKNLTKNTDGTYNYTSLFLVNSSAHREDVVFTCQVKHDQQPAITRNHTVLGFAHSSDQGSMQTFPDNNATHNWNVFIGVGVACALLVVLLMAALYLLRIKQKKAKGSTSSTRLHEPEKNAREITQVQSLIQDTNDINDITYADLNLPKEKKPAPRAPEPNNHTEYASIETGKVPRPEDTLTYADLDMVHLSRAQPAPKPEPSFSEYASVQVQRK

T3: full length cyno SIRPα stably expressed on CHOK1 cells (cynomolgus monkey, UniProt A0A2K5VYQ9 31-507)
T3 construct: whole, on cells; also called CHOK1-cyno SIRPα-2A2 cells; CHOK1-cyno SIRPα
T3 sequence: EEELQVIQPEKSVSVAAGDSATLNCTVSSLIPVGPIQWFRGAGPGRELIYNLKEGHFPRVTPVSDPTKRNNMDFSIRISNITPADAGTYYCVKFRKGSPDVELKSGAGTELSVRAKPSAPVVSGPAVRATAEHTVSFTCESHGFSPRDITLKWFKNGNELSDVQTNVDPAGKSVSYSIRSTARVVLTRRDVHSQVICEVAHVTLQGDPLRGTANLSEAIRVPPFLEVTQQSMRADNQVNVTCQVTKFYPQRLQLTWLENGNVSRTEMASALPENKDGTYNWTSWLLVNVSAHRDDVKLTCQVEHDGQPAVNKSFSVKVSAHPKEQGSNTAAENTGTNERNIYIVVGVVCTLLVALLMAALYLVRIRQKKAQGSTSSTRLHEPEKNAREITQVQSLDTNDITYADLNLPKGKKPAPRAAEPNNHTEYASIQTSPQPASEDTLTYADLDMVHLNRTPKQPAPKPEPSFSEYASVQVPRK

B1: humanized antibody hu035.09 (antibody, V domains shown)
VH: QIQLVQSGSELKKPGASVKVSCRAGGYTLTDYAMNWVRQAPGQGLEWMGFINTYTGEPTYAQGFKGRFVFSLDTSVSTAYLQIGSLKAEDTAVYYCARTRGYYDFDGGAFDYWGQGTLVTVSS
VL: DIQMTQSPSSLSASVGDRVTITCRASQNVGTHLAWYQQKPGKAPKSLIYSAIYRYIGVPSRFSGSGSGTDFTLTISSLQPEDFATYYCQQYNTYPLTFGQGTKLEIK
B2: humanized antibody hu035.14 (antibody, V domains shown)
VH: B1 VH with R23K, G25S, T28S, L29I, G84S
VL: B1 VL with A43S, S46A, Y49F, S77N
B3: humanized antibody hu035.10 (antibody, V domains shown)
VH: B1 VH with G25R
VL: B1 VL with A43S, S46A, Y49F, S77N
B4: humanized antibody hu035.17 (antibody, V domains shown)
VH: B1 VH with G25R
VL: DIQMTQSPSSLSASVGDRVTITCRASQNVGTHLAWYQQKPGKAPKSLIYSAIYRYIGVPSRFSGSGSGTDFTLTISSLQPEDFATYFCQQYNTYPLTFDQGTKLEIKR
B5: humanized antibody hu035.13 (antibody, V domains shown)
VH: B1 VH with R23K, G25S, T28S, L29I, D31N, G84S
VL: B4 VL with S10R, S12G

biological target: T1, 6×His tagged C57BL/6 mouse SIRPα ECD …; assay: ELISA on coated mouse SIRPα (C57BL/6) ECD [Continued) F]

Binder | EC50 (read off the curve) [µg/mL]
B1 | ~0.04
B2 | ~0.04
B3 | ~0.04
B4 | ~0.04

biological target: T4, 6×His tagged human SIRPα v1 ECD recombinant protein (human, UniProt P78324 31-373); assay: SPR (Biacore)
T4 construct: extracellular domain; bought; also called hSIRPα V1 (SPR antigen)
T4 sequence (P78324 other isoform, or with tags, fused parts or gaps): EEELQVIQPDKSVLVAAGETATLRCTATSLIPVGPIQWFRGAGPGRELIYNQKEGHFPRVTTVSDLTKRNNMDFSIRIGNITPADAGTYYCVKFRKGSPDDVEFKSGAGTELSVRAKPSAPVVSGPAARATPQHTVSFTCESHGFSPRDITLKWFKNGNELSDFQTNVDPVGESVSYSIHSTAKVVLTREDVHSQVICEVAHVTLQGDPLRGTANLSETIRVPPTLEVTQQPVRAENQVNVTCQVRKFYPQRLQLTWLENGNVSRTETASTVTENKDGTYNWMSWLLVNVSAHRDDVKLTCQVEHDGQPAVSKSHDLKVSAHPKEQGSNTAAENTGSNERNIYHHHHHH

Binder | Kd [nM]
B1 | 2.17
B5 | 0.61
B2 | 1.44
B3 | 3.82
B4 | 0.86

biological target: T5, 6×His tagged human SIRPα v2 ECD recombinant protein (human); assay: SPR (Biacore)
T5 sequence (chain, as listed by the source): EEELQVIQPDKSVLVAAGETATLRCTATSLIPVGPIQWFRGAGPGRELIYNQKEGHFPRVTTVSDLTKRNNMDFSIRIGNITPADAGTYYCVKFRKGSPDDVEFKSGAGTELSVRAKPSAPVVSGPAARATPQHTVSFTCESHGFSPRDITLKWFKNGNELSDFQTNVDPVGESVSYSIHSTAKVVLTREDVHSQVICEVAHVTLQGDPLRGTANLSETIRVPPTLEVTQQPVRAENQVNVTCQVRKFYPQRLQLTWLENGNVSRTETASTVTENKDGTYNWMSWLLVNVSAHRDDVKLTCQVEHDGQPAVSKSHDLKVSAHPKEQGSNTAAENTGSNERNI

Binder | Kd [nM]
B5 | 1.24
B3 | 2.15
B4 | 1.43

biological target: T1, 6×His tagged C57BL/6 mouse SIRPα ECD …; assay: SPR (Biacore)

Binder | Kd [nM]
B5 | 45.8
B3 | 33.8
B4 | 25.9

biological target: T4, 6×His tagged human SIRPα v1 ECD …; assay: SPR (Biacore), antibody captured
Method: (§1) Anti-SIRPα chimeric antibodies were characterized for binding affinity against human SIRPα v1, human SIRPα v2 and C57BL/6 mouse SIRPα using Biacore (GE). Briefly the antibodies to be tested were captured to CM5 chip (GE) using Human Antibody Capture Kit (GE). The antigens of 6×His tagged human SIRPα v1, human SIRPα v2 and C57BL/6 mouse SIRPα ECD recombinant proteins were serially diluted for multiple doses and injected at 30 μl/min for 180 s. Buffer flow was maintained for dissociation of 400 s. 3 M MgCl₂ was used for chip regeneration. The association and dissociation curves were fit with 1:1 binding model, and the Ka/Kd/KD values for each antibody were calculated.

Binder | Kd [nM] | koff [s⁻¹] | kon [M⁻¹ s⁻¹]
B1 | 2.17 | 0.000191 | 88300
B5 | 0.61 | 0.000117 | 192000
B2 | 1.44 | 0.000129 | 89200
B3 | 3.82 | 0.000238 | 62100
B4 | 0.86 | 0.00012 | 140000

biological target: T5, 6×His tagged human SIRPα v2 ECD …; assay: SPR (Biacore), antibody captured
Method: as §1

Binder | Kd [nM] | koff [s⁻¹] | kon [M⁻¹ s⁻¹]
B5 | 3.2 | 0.000189 | 59200
B3 | 1.64 | 0.00017 | 104000
B4 | 2.17 | 0.000191 | 88300

biological target: T1, 6×His tagged C57BL/6 mouse SIRPα ECD …; assay: SPR (Biacore), antibody captured
Method: as §1

Binder | Kd [nM] | koff [s⁻¹] | kon [M⁻¹ s⁻¹]
B5 | 45.8 | 0.00259 | 56600
B3 | 33.8 | 0.00152 | 45000
B4 | 25.9 | 0.0015 | 57900

biological target: T6, full length human SIRPα v1 stably expressed on CHOK1 cells (human, UniProt P78324 31-504); assay: FACS on CHOK1 cells
T6 construct: whole, on cells; also called CHOK1-human SIRPα v1-1B4 cells; CHOK1-human SIRPα v1
Method: (§2) Species cross reactivity of the purified hybridoma antibodies against human, cyno and mouse SIRPα was determined by FACS assay using CHOK1-human SIRPα v1-1B4 cells, CHOK1-cyno SIRPα-2A2 cells, and CHOK1-C57BL/6 mouse SIRPα-2.22 cells, which stably expressing SIRPα protein. Briefly the antibodies were incubated with 2×10⁵ target cells at 4° C. for 1 hour. After washing, fluorescence labeled anti-mouse or anti-human IgG 2nd antibody (Life Technologies) was added and incubated at 4° C. for 1 hour. Geometric median fluorescence intensity was detected and EC₅₀ was calculated. In particular, it is noted, in contrast to the other antibodies tested in the same experiment, 060 cannot bind with cyno SIRPα and 035 has cross reactivity against C57BL/6 mouse SIRPα.

Binder | EC50 [nM]
B1 | 1.45
B5 | 1.03
B2 | 1.31
B3 | 1.44
B4 | 1.15

biological target: T2, full length C57BL/6 mouse SIRPα stably …; assay: FACS on CHOK1 cells
Method: as §2

Binder | MFI at 2 ug/ml [MFI]
B1 | 950
B5 | 876
B2 | 1050
B3 | 1110
B4 | 1120

biological target: T3, full length cyno SIRPα stably expressed …; assay: FACS on CHOK1 cells
Method: as §2

Binder | EC50 [nM]
B1 | 0.36
B5 | 0.26
B2 | 0.36
B3 | 0.33
B4 | 0.24

biological target: T7, 6×His tagged human SIRPα v8 ECD recombinant protein (human); assay: ELISA
T7 construct: extracellular domain; bought; also called hSIRPα V8

Binder | EC50 [nM]
B1 | 0.21
B5 | 0.16
B2 | 0.28
B3 | 0.18
B4 | 0.26

biological target: T8, Fc tagged human SIRPγ ECD recombinant protein (human, UniProt Q9P1W8 29-360); assay: ELISA
T8 construct: range 1-360; cloned range includes the signal peptide; also called hSIRPγ; not shown: human IgG Fc region (hFc) of the pCPC vector
T8 sequence (Q9P1W8 29-360 limits assumed, form in doubt): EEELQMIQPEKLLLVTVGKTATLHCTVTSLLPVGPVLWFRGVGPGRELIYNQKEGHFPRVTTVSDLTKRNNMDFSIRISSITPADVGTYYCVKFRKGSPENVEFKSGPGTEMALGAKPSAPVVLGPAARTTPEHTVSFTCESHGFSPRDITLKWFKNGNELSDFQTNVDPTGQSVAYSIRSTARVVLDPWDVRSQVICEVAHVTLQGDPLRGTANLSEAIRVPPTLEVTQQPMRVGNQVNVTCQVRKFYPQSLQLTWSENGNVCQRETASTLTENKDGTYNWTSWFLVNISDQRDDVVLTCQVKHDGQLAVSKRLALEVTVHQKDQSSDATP

Binder | EC50 [nM]
B1 | 1.05
B5 | 0.67
B2 | 0.52
B3 | 0.34
B4 | 0.54

biological target: T9, Fc tagged human SIRPα v2 ECD recombinant protein (human); assay: ELISA
T9 construct: range 1-369; cloned range M1-R369 includes the signal peptide; also called hSIRPα V2

Binder | EC50 [nM]
B1 | 0.19
B5 | 0.17
B2 | 0.16
B3 | 0.16
B4 | 0.15

biological target: T10, Fc tagged human SIRPα v1 ECD recombinant protein (human, UniProt P78324 31-370); assay: ELISA
T10 construct: range 1-370; cloned range M1-R370 includes the signal peptide; also called hSIRPα V1; not shown: human IgG Fc region (hFc) of the pCPC vector
T10 sequence (P78324 31-370 limits assumed): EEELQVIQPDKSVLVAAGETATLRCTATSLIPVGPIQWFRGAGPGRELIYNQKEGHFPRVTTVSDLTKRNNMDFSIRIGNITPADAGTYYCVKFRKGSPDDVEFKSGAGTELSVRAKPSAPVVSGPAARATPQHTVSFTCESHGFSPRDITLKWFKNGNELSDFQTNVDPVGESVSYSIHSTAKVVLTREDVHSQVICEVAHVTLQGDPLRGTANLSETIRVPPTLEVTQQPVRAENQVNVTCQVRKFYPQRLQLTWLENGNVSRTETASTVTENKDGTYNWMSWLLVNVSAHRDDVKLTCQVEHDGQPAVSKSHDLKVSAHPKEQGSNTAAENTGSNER

Binder | EC50 [nM]
B1 | 0.13
B5 | 0.14
B2 | 0.15
B3 | 0.19
B4 | 0.18

biological target: T11, Fc tagged human SIRPβ ECD recombinant protein (human, UniProt O00241 30-371); assay: ELISA
T11 construct: range 1-371; cloned range includes the signal peptide; also called hSIRPβ; not shown: human IgG Fc region (hFc) of the pCPC vector
T11 sequence (O00241 30-371 limits assumed, form in doubt): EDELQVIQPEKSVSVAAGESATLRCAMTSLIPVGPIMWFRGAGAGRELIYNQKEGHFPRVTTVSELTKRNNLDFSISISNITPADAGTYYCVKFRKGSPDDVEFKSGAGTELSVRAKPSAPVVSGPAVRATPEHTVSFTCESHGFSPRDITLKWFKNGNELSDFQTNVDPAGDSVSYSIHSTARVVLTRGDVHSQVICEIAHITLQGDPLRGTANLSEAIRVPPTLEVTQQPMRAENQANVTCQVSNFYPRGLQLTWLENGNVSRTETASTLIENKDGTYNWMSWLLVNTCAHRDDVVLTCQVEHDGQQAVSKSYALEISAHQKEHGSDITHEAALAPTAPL

Binder | EC50 [nM]
B1 | 0.23
B5 | 0.18
B2 | 0.23
B3 | 0.19
B4 | 0.15

biological target: T12, biotin labeled soluble human SIRPα v1 ECD recombinant protein (human, UniProt P78324 31-373, biotin labeled); assay: competitive ELISA, hSIRPα/CD47 blocking
T12 construct: extracellular domain
T12 sequence (P78324 31-373): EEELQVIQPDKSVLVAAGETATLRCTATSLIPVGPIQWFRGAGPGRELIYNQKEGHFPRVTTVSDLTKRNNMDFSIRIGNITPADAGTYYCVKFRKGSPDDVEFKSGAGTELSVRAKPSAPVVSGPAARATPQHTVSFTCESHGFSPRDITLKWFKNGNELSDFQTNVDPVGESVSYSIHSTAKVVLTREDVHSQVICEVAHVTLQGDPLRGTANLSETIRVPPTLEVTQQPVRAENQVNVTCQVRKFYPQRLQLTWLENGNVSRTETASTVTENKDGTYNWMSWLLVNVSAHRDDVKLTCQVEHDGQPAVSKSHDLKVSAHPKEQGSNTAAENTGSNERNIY

Binder | IC50 [nM]
B1 | 1.36
B5 | 1.33
B2 | 1.46
B3 | 1.49
B4 | 1.22
